Test results from FireProtDB (doi:10.1021/bi982931h).

Details: Geobacillus stearothermophilus, 25 °C, Urea, CD, Sodium phosphate 10 mM, reversible: yes, whole UniProt chain shown

B1: Large ribosomal subunit protein bL9 wild type, P02417 (protein)
chain: MKVIFLKDVKGKGKKGEIKNVADGYANNFLFKQGLAIEATPANLKALEAQKQKEQRQAAEELANAKKLKEQLEKLTVTIPAKAGEGGRLFGSITSKQIAESLQAQHGLKLDKRKIELADAIRALGYTNVPVKLHPEVTATLKVHVTEQK
What does the source list for B1?
unfolding free energy (pH 2.4, NaCl 750 mM): 2.9 kcal/mol; unfolding free energy (pH 2.79, NaCl 100 mM): 2.3 kcal/mol; unfolding free energy (pH 3.15, NaCl 750 mM): 3.1 kcal/mol; unfolding free energy (pH 3.55, NaCl 100 mM): 3 kcal/mol; unfolding free energy (pH 4.14, NaCl 750 mM): 4 kcal/mol; unfolding free energy (pH 4.51, NaCl 100 mM): 3.5 kcal/mol; unfolding free energy (pH 5.25, NaCl 750 mM): 4.8 kcal/mol; unfolding free energy (pH 5.99, NaCl 100 mM): 4.4 kcal/mol; unfolding free energy (pH 6.56, NaCl 750 mM): 4.7 kcal/mol; unfolding free energy (pH 6.98, NaCl 100 mM): 4.5 kcal/mol; unfolding free energy (pH 7.26, NaCl 750 mM): 5.2 kcal/mol
